Numbered stars: 1 amine (or outer) side, 2 acyl side, 3 side chain; on linkers, the order of the positions; unused ones are H or OH. Bridge positions count the residues as written; N and C are the ends. Square brackets hold non-standard residues; d marks the D form. Side chains are listed from the residue outwards. Ends that are not written are not given here. * marks the point of attachment. C20 diacid = O=C(O)CCCCCCCCCCCCCCCCCCC(=O)*; γGlu = O=C(O)[C@H](CCC(=O)[*:2])N[*:1]; Hyp = O=C(O)[C@@H]1C[C@@H](O)CN1; NMeI = CC[C@H](C)[C@H](NC)C(=O)O; Aad = N[C@@H](CCCC(=O)O)C(=O)O; AEEA = NCCOCCOCC(=O)O; Sar = CNCC(=O)O
Key:
[1] = molecular target: T1, hAMY3R (human, UniProt P30988); experiment: cell-based or functional assay
T1 sequence 1: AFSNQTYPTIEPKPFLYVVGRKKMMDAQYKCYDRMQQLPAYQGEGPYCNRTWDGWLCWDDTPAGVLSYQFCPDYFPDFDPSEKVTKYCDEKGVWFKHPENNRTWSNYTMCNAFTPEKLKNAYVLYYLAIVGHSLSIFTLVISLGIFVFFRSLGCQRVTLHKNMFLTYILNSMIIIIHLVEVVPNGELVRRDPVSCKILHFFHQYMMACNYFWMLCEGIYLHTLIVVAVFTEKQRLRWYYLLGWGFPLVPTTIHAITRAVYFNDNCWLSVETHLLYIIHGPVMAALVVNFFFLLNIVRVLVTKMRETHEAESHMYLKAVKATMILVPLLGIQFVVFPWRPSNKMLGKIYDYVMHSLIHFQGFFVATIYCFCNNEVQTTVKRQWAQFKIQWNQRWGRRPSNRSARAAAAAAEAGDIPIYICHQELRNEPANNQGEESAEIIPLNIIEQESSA
T1 sequence 2: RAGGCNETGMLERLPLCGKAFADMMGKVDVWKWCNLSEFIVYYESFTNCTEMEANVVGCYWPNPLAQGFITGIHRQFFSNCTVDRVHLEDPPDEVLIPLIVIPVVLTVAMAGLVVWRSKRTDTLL

[2] = molecular target: hAM1R (human, UniProt Q16602); experiment: cell-based or functional assay

Binder: KCNTATCTVQRLAHQIYQFTDKDKDAVAPPTNVGSNG[Hyp]-NH2 (disulfide 2-7 (inferred); ends not checked) [SEQ ID NO: 52]
- hAMY3R EC50 (cAMP) [1]: 0.011 nM
- hAM1R EC50 (cAMP) [2]: > 5000 nM

Binder: {C20 diacid-γGlu}-KCNTATCTVQRLAHQIAQFTDKDKDNVAPPTNVGSNG[Hyp]-NH2 (disulfide 2-7 (inferred); not fully specified; ends not checked) [SEQ ID NO: 61]
- hAMY3R EC50 (cAMP) [1]: 0.012 nM
- hAM1R EC50 (cAMP) [2]: > 5000 nM

Binder: {C20 diacid-γGlu}-KCNTSTCTVQRLAHQIYQFTDKDKDNVAPPTNVGSNG[Hyp]-NH2 (disulfide 2-7 (inferred); ends not checked) [SEQ ID NO: 50]
- hAMY3R EC50 (cAMP) [1]: 0.011 nM
- hAM1R EC50 (cAMP) [2]: > 5000 nM

Binder: GCRFGTCTVQRLAHQIYQFTDKDKDNVAPRTNVGPQG[Hyp]-NH2 (disulfide 2-7 (inferred); ends not checked) [SEQ ID NO: 70]
- hAMY3R EC50 (cAMP) [1]: 0.013 nM
- hAM1R EC50 (cAMP) [2]: 2980 nM

Binder: {C20 diacid-γGlu}-KCNTATCTVQRLAHQIAQYTDKDKDNVAPPTNVGSNG[Hyp]-NH2 (disulfide 2-7 (inferred); not fully specified; ends not checked) [SEQ ID NO: 71]
- hAMY3R EC50 (cAMP) [1]: 0.013 nM
- hAM1R EC50 (cAMP) [2]: > 5000 nM

Binder: {C20 diacid-γGlu}-KCNFATCTVQRLAHQIYQFTDKDKDNVAPRTEVGSNG[Hyp]-NH2 (disulfide 2-7 (inferred); not fully specified; ends not checked) [SEQ ID NO: 67]
- hAMY3R EC50 (cAMP) [1]: 0.013 nM
- hAM1R EC50 (cAMP) [2]: 116 nM

Binder: KCNTATCTVQRLAHQIYQFTDKDKDNVAPPTNVGSNG[Hyp]-NH2 (disulfide 2-7 (inferred); ends not checked) [SEQ ID NO: 75]
- hAMY3R EC50 (cAMP) [1]: 0.013 nM
- hAM1R EC50 (cAMP) [2]: > 5000 nM

Binder: KCNTATCTVQRLAHQIYQFDKDKDNVAPPTNVGSNG[Hyp]-NH2 (disulfide 2-7 (inferred); ends not checked) [SEQ ID NO: 65]
- hAMY3R EC50 (cAMP) [1]: 0.012 nM
- hAM1R EC50 (cAMP) [2]: > 5000 nM

Binder: {C20 diacid-γGlu}-KCNTATCTVQRLAHQIYQFTDKDKDNVAPPTKVGSNG[Hyp]-NH2 (disulfide 2-7 (inferred); not fully specified; ends not checked) [SEQ ID NO: 60]
- hAMY3R EC50 (cAMP) [1]: 0.012 nM
- hAM1R EC50 (cAMP) [2]: > 5000 nM

Binder: KCNTATCATQRLANFLVHSSNNFGAILSSTKVGSNTY [SEQ ID NO: 58]
- hAMY3R EC50 (cAMP) [1]: 0.012 nM
- hAM1R EC50 (cAMP) [2]: > 5000 nM

Binder: KCNTATCATQRLANFLVHSSNNFGAILPSTKVGSNGY [SEQ ID NO: 59]
- hAMY3R EC50 (cAMP) [1]: 0.012 nM
- hAM1R EC50 (cAMP) [2]: > 5000 nM

Binder: KCNTATCTVQRLAEQIYQFTDKDKDNVAPPTNVGSK([AEEA-AEEA-γGlu-C20 diacid])G[Hyp]-NH2 (disulfide 2-7 (inferred); ends not checked) [SEQ ID NO: 6]
- hAMY3R EC50 (cAMP) [1]: 0.006 nM
- hAM1R EC50 (cAMP) [2]: > 5000 nM

Binder: GCRFGTCTVQRLAHFLYQFTDKDKDNVAPRTNVGPQGY [SEQ ID NO: 54]
- hAMY3R EC50 (cAMP) [1]: 0.012 nM
- hAM1R EC50 (cAMP) [2]: 46.2 nM

Binder: GCRFGTCTVQRLAHFLYQFTDKDKDNVAPRTNVGSNTY [SEQ ID NO: 56]
- hAMY3R EC50 (cAMP) [1]: 0.012 nM
- hAM1R EC50 (cAMP) [2]: 103 nM

Binder: {C20 diacid-γGlu}-KCNFATCTVQRLAHQIYQFTDKDKDNVAPPTEVGSNG[Hyp]-NH2 (disulfide 2-7 (inferred); not fully specified; ends not checked) [SEQ ID NO: 68]
- hAMY3R EC50 (cAMP) [1]: 0.013 nM
- hAM1R EC50 (cAMP) [2]: 255 nM

Binder: {C20 diacid-γGlu}-RCGTATCATERLA[Aad]FLQRSSF[Sar]A[NMeI]LSSTEVGSNT[Hyp]-NH2 (disulfide 2-7 (inferred); not fully specified; ends not checked) [SEQ ID NO: 76]
- hAMY3R EC50 (cAMP) [1]: 0.014 nM
- hAM1R EC50 (cAMP) [2]: > 5000 nM

Binder: {C20 diacid-γGlu}-KCNTATCTVQRLADQIYQFTDKDKDNVAPPTNVGSNG[Hyp]-NH2 (disulfide 2-7 (inferred); ends not checked) [SEQ ID NO: 5]
- hAMY3R EC50 (cAMP) [1]: 0.006 nM
- hAM1R EC50 (cAMP) [2]: > 5000 nM

Binder: KCNTATCTVQRLAAQIYQFTDKDKDNVAPPTNVGSNG[Hyp]-NH2 (disulfide 2-7 (inferred); ends not checked) [SEQ ID NO: 7]
- hAMY3R EC50 (cAMP) [1]: 0.006 nM
- hAM1R EC50 (cAMP) [2]: > 5000 nM

Binder: {C20 diacid-γGlu}-KCNTATCTVERLAHQIYQFTDKDKDNVAPPTNVGSNG[Hyp]-NH2 (disulfide 2-7 (inferred); ends not checked) [SEQ ID NO: 55]
- hAMY3R EC50 (cAMP) [1]: 0.012 nM
- hAM1R EC50 (cAMP) [2]: 63.8 nM

Binder: KCNTATCTVQRLAK([AEEA-AEEA-γGlu-C20 diacid])QIYQFTDKDKDNVAPPTNVGSNG[Hyp]-NH2 (disulfide 2-7 (inferred); not fully specified; ends not checked) [SEQ ID NO: 74]
- hAMY3R EC50 (cAMP) [1]: 0.013 nM
- hAM1R EC50 (cAMP) [2]: > 5000 nM

Binder: {C20 diacid-γGlu}-KCNTATCTVQRLAHQIYQFSDKDKDNVAPPTNVGSNG[Hyp]-NH2 (disulfide 2-7 (inferred); ends not checked) [SEQ ID NO: 57]
- hAMY3R EC50 (cAMP) [1]: 0.012 nM
- hAM1R EC50 (cAMP) [2]: 590 nM

Binder: KCNTATCTVQRLAEQIYQFTDKDKDNVSPPTNVGSNG[Hyp]-NH2 (disulfide 2-7 (inferred); ends not checked) [SEQ ID NO: 66]
- hAMY3R EC50 (cAMP) [1]: 0.012 nM
- hAM1R EC50 (cAMP) [2]: > 5000 nM

Binder: KCQTATCTVQRLAEQIYQFTDKDKDNVAPPTNVGSNGX (not fully specified; C20DA-yGlu at N-terminal; Hyp at X38) [SEQ ID NO: 72]
- hAMY3R EC50 (cAMP) [1]: 0.013 nM
- hAM1R EC50 (cAMP) [2]: > 5000 nM

Binder: {C20 diacid-γGlu}-KCNTATCTVQRLAEQIYQFTDKDKDNVAPPTQVGSNG[Hyp]-NH2 (disulfide 2-7 (inferred); not fully specified; ends not checked) [SEQ ID NO: 73]
- hAMY3R EC50 (cAMP) [1]: 0.013 nM
- hAM1R EC50 (cAMP) [2]: > 5000 nM

Binder: {C20 diacid-γGlu}-KCNTSTCTVQRLAHQIAQFTDKDKDNVAPPTNVGSNG[Hyp]-NH2 (disulfide 2-7 (inferred); not fully specified; ends not checked) [SEQ ID NO: 62]
- hAMY3R EC50 (cAMP) [1]: 0.012 nM
- hAM1R EC50 (cAMP) [2]: > 5000 nM

Binder: {C20 diacid-γGlu}-KCNTATCTVQRLAEQIYQFTDKDKDNVAPPTNVGSNG[Hyp]-NH2 (disulfide 2-7 (inferred); ends not checked) [SEQ ID NO: 51]
- hAMY3R EC50 (cAMP) [1]: 0.011 nM
- hAM1R EC50 (cAMP) [2]: > 5000 nM

Binder: {C20 diacid-γGlu}-KCNTATCTVQRLAHQIAQFTDKDKDNVAPPTNVGSNS[Hyp]-NH2 (disulfide 2-7 (inferred); not fully specified; ends not checked) [SEQ ID NO: 69]
- hAMY3R EC50 (cAMP) [1]: 0.013 nM
- hAM1R EC50 (cAMP) [2]: 680 nM

Binder: {C20 diacid-γGlu}-KCNTATCTVQRLAEQIYQFTDKDKDNVAPPTAVGSNG[Hyp]-NH2 (disulfide 2-7 (inferred); not fully specified; ends not checked) [SEQ ID NO: 63]
- hAMY3R EC50 (cAMP) [1]: 0.012 nM
- hAM1R EC50 (cAMP) [2]: > 5000 nM

Binder: KCNTSTCTVARLADQITQFSNKDKAQVSPPTEVGPNS[Hyp]-NH2 (disulfide 2-7 (inferred); ends not checked) [SEQ ID NO: 8]
- hAMY3R EC50 (cAMP) [1]: 0.006 nM
- hAM1R EC50 (cAMP) [2]: > 5000 nM

Binder: KCNTATCTVQRLAHQIYQFTDADKDNVAPPTNVGSNG[Hyp]-NH2 (disulfide 2-7 (inferred); ends not checked) [SEQ ID NO: 64]
- hAMY3R EC50 (cAMP) [1]: 0.012 nM
- hAM1R EC50 (cAMP) [2]: > 5000 nM

Binder: KCNTATCTVQRLAHQIYQFTDKDKDNVAAPTNVGSNG[Hyp]-NH2 (disulfide 2-7 (inferred); ends not checked) [SEQ ID NO: 53]
- hAMY3R EC50 (cAMP) [1]: 0.011 nM
- hAM1R EC50 (cAMP) [2]: > 5000 nM

Reference: US12139520B2 (priority 2020, dated 2024)
